For assay [1], the target named is T1, MASP-1 catalytic fragment (CCP1-CCP2-SP) (UniProt P48740 299-699).
T1 construct: MASP-1, active catalytic fragment containing the CCP1-CCP2-SP domains
T1 sequence: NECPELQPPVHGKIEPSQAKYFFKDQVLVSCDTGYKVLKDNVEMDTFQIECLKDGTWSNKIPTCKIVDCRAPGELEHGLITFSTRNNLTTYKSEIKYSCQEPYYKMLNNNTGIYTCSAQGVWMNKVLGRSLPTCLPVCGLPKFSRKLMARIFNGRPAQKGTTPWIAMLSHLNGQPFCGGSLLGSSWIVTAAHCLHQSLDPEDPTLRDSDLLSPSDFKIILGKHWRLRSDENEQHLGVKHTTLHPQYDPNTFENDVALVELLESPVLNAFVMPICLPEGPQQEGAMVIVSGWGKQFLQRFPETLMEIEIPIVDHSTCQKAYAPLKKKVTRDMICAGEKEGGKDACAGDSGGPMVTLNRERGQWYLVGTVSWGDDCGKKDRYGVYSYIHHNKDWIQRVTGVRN
Nature of the assay: equilibrium enzyme inhibition titration (residual activity; Green and Work); fixed protease incubated with increasing inhibitor to equilibrium; free enzyme read with 250 μM Z-L-Lys-SBzl + 500 μM DTNB; 20 mM HEPES, 145 mM NaCl, 5 mM CaCl2, 0.05% Triton X-100, pH 7.5; apparent KI corrected with KM where marked [a]. To be noted: both partners purified.

The target of assay [2] is T2, MASP-2 catalytic fragment (CCP1-CCP2-SP) (UniProt O00187 298-686).
T2 construct: MASP-2, active catalytic fragment containing the CCP1-CCP2-SP domains
T2 sequence (O00187 298-686): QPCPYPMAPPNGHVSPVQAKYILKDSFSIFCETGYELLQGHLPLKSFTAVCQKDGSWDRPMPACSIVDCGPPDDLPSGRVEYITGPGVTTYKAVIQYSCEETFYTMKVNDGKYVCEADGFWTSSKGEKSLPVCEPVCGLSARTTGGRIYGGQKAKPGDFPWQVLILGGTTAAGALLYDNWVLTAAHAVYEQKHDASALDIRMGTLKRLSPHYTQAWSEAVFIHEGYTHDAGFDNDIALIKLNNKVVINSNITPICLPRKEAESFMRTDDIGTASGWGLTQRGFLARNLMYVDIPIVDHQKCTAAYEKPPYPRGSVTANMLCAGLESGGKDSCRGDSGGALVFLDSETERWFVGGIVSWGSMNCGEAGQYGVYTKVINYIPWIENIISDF
Described as above. The conditions noted are these: both partners purified.

The target of assay [3] is T3, C1s catalytic fragment (CCP1-CCP2-SP) (UniProt P09871 292-688).
T3 construct: C1s, active catalytic fragment containing the CCP1-CCP2-SP domains
T3 sequence: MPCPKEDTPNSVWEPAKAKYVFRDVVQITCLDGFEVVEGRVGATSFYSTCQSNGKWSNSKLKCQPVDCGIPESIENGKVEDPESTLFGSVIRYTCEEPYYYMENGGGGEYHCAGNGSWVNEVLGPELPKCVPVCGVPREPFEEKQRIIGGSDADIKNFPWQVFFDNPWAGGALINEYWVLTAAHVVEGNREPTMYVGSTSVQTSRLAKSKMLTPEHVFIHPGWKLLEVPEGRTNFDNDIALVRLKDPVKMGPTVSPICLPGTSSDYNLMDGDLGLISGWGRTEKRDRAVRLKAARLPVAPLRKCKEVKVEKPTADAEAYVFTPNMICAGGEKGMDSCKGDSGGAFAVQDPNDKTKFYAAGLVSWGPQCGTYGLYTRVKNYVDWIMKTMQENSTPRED
Nature of the assay: equilibrium enzyme inhibition titration (residual activity; Green and Work); fixed protease incubated with increasing ecotin to equilibrium; 250 μM Z-Gly-Arg-SBzl + 500 μM DTNB; 20 mM HEPES, 145 mM NaCl, 5 mM CaCl2, 0.05% Triton X-100, pH 7.5; apparent KI corrected with a KM from the literature. The conditions noted are these: both partners purified.

Another assay deals with T4, factor D (human, UniProt P00746 26-253).
T4 construct: the KI was measured on recombinant FD; that the recombinant FD was made from it is surmised; also called FD; recombinant FD
T4 sequence (P00746 26-253): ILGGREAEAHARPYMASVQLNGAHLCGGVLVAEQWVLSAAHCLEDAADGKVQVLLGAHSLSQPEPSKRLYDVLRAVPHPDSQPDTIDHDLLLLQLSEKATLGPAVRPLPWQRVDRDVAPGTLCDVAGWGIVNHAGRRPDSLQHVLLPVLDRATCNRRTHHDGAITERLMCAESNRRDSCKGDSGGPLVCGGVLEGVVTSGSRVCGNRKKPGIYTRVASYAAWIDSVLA
Nature of the assay: equilibrium enzyme inhibition titration (residual activity; Green and Work); fixed protease incubated with increasing inhibitor to equilibrium; free enzyme read with 250 μM Z-L-Lys-SBzl + 500 μM DTNB; 20 mM HEPES, 145 mM NaCl, 5 mM CaCl2, 0.05% Triton X-100, pH 7.5; apparent KI corrected with KM where marked [a]. To be noted: both partners purified.

Assay [4] addresses T5, MASP-3 catalytic fragment (CCP1-CCP2-SP) (UniProt P48740-2 299-728).
T5 sequence: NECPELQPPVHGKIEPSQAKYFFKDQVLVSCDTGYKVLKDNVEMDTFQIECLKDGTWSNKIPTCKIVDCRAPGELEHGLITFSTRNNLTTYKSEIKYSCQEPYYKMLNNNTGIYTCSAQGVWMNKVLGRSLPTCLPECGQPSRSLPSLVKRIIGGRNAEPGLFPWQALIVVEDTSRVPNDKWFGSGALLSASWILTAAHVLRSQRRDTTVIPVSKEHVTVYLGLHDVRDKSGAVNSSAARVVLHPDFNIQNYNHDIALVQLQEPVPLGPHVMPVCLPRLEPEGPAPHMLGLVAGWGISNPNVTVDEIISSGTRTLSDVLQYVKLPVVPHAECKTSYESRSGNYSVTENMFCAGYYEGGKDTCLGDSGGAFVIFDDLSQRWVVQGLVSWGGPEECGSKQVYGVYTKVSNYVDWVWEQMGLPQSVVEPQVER
Nature of the assay: equilibrium enzyme inhibition titration (residual activity; Green and Work); tight-binding format: fixed MASP-3 incubated with increasing ecotin to equilibrium; 250 μM Z-L-Lys-SBzl + 40 μM Thiol Fluorescent Probe IV; 20 mM HEPES, 145 mM NaCl, 5 mM CaCl2, 0.05% Triton X-100, pH 7.5. The conditions noted are these: both partners purified.

In assay [5] the target is T5, MASP-3 catalytic fragment (CCP1-CCP2-SP). Nature of the assay: cell-based or functional assay.
The target is the same in assay [6]. Nature of the assay: equilibrium enzyme inhibition titration (residual activity; Green and Work); fixed protease incubated with increasing inhibitor to equilibrium; free enzyme read with 250 μM Z-L-Lys-SBzl + 500 μM DTNB; 20 mM HEPES, 145 mM NaCl, 5 mM CaCl2, 0.05% Triton X-100, pH 7.5; apparent KI corrected with KM where marked [a]. The conditions noted are these: both partners purified.

The target of assay [7] is T2, MASP-2 catalytic fragment (CCP1-CCP2-SP). Nature of the assay: cell-based or functional assay.
Assay [8] concerns the target T1, MASP-1 catalytic fragment (CCP1-CCP2-SP). Nature of the assay: […]; 20 mM HEPES, 145 mM NaCl, 5 mM CaCl2, 0.05% Triton X-100, pH 7.5; […]. The conditions noted are these: both partners purified.
Assay [9] deals with T2, MASP-2 catalytic fragment (CCP1-CCP2-SP). The assay is described as above. To be noted: both partners purified.
Assay [10] addresses T5, MASP-3 catalytic fragment (CCP1-CCP2-SP). The assay is described as above. To be noted: both partners purified.

B1: E. coli ecotin (natural protein)
chain: not shown
notes: also called recombinant E. coli ecotin
For B1, the Ki was 4200 nM in [1]; 11 nM in [2]; 25200 ± 4450 nM in assay [3]; 4060 nM with factor D; 0.52 nM in assay [4]. Also, in [5], the “half-life of Cy3-labelled pro-FD in NHS at 37 °C with 1 μM ecotin pre-incubated 10 min with the serum (3 hours without inhibitor)” value came to 10 h.

B2: L. major ecotin (ISP2) (natural protein)
chain: MPAGMSDAAGKTLADFKAPYPEPTSQQRRYVIFLDPKGDSKELNDYKVELIPGRVEKVDGTNVYRMGGNIEERTIDGWGYPYYIVTLTTMSGTLMMPLGDAALKRPRFVAMNTKNLYRYNSRLPIVVYMPKDGELRYRIWTVKSTGSGTAKSTKAREM
notes: His6-tag cleaved off with TEV protease; also called Leishmania major ISP2 ortholog; not shown: His6, N-terminal, cleaved
For the molecule B2, the figures for the Ki in [1], in [2] and in assay [6] were 2700 nM, 8.8 nM and 4.1 nM, respectively.

B3: P. aeruginosa ecotin (natural protein)
chain: not shown
notes: also called Pseudomonas aeruginosa ecotin ortholog
B3: the Ki in assay [1] amounted to 34 nM; in assay [2] it was 76 nM; in [6], 9.6 nM. Moreover, the “IC50 of mannan-triggered LP-driven C3-deposition ELISA in 2% NHS (the most efficient LP inhibitor of the four orthologs)” value in [7] lay within 84 to 190 nM.

B4: Y. pestis ecotin (natural protein)
chain: DTPTPLNQQQPLEKIAPYPQAEKGMSRQVIFLEPQKDESRFKVELLIGKTLNVDCNRHMLGGNLETRTLSGWGFDYLVMDKISQPASTMMACPEDSKPQVKFVTANLGDAAMQRYNSRLPIVVYVPQGVEVKYRIWEAGEDIRSAQVK
notes: also called Yersinia pestis ecotin ortholog
Regarding B4, the Ki in assay [8] came to 35000 nM; in assay [9], 2.2 nM; in [10], 800 nM.

These data come from paper PMC6944378, “Ecotin, a microbial inhibitor of serine proteases, blocks multiple complement dependent and independent microbicidal activities of human serum” (PLoS Pathogens, 2019).
